Measured values taken from patent US6881827B2, “Molecular cloning of a 7TM receptor (AXOR34) and screening methods thereof” (SmithKline Beecham Corporation, priority 1999, dated 2005).

Molecular target: T1, AXOR34 (Homo sapiens, UniProt Q9GZQ4)
T1 construct: expressed in transfected cells; host or cells: HEK-293 cells, transient transfection (pCDN vector as the empty-vector control)
Experiment: FLIPR calcium mobilization assay in HEK-293 cells transiently transfected with AXOR34
Format: cell-based
Settings: ligand concentrations 1 μM-0.1 nM
Text: There was no concentration-dependent activity for pCDNs or untransfected cells.

T1 sequence (Q9GZQ4 whole entry): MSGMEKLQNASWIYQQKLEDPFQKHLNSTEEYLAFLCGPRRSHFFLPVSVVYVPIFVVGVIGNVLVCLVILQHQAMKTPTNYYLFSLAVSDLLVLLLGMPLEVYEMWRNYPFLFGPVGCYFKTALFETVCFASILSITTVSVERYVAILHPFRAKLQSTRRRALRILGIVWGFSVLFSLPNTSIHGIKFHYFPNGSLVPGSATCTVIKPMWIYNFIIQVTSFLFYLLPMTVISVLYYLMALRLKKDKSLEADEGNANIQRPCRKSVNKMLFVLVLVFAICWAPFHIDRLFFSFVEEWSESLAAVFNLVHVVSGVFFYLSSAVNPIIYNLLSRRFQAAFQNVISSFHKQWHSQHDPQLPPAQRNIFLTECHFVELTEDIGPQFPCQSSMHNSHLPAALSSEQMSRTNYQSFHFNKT

Calcium mobilization response, robust calcium mobilization responses:
porcine Neuromedin U-8 [porcine NmU-8]
porcine Neuromedin U-25 (FLVDEEFQGPIVSQNRRYFLFRPRN; HOMO SAPIENS) [porcine NmU-25]
rat Neuromedin U-23 (YKVNEYQGPVAPSGGFFLFRPRN; HOMO SAPIENS) [rat NmU-23]
